From US20190336574A1 (TRUSTEES OF PRINCETON UNIVERSITY, published 2019)
Residue numbers refer to the chain shown, from its start. Names may count otherwise. Where no end group is shown, it is not given here.

T1: HA-SND1, full-length human, wild type (human, UniProt Q7KZF4 1-910)
T1 construct: Full-length, HA-tagged; Expressed in HEK293T cells, tested in lysate; also called HA-tagged SND1; WT HA-SND1
T1 sequence: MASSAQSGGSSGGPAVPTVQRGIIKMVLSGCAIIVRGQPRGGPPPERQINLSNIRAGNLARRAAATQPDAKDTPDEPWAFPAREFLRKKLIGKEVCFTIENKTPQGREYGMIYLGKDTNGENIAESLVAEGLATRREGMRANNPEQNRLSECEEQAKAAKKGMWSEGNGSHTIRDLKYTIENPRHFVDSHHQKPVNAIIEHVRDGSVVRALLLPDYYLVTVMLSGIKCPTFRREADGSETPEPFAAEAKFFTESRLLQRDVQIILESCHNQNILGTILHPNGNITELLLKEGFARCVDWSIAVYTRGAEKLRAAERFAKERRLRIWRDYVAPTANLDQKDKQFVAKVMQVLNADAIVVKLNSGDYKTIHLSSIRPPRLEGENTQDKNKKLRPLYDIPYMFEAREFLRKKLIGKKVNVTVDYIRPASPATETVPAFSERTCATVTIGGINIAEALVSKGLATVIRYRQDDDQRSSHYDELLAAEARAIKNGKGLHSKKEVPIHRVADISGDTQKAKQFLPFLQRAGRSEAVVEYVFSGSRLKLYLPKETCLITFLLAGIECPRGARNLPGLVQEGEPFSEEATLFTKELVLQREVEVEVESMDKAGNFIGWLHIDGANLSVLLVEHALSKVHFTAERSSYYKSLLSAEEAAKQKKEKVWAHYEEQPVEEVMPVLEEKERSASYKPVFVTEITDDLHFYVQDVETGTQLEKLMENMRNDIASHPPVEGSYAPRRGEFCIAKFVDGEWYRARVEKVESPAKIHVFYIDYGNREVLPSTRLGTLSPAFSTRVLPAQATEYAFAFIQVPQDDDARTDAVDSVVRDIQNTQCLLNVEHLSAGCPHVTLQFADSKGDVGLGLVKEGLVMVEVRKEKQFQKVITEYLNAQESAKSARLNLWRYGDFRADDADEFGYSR

B1: GST-MTDH (364-582), wild type (other)
chain: YQWDVSRNQPYIDDEWSGLNGLSSADPNSDWNAPAEEWGNWVDEERASLLKSQEPIPDDQKVSDDDKEKGEGALPTGKSKKKKKKKKKQGEDNSTAQDTEELEKEIREDLPVNTSKTRPKQEKAFSLKTISTSDPAEVLVKNSQPIKTLPPATSTEPSVILSKSDSDKSSSQVPPILQETDKSKSNTKQNSVPPSQTKSETSWESPKQIKKKKKARRET
notes: not shown: N-terminal GST tag with TEV site, pQlink vector
B2: GST-MTDH (364-582) W401D (other)
chain: B1 chain with W38D
notes: as for B1
B3: GST-MTDH (364-582) N395A (other)
chain: B1 chain with N32A
notes: as for B1
B4: GST-MTDH (364-582) N403A (other)
chain: B1 chain with N40A
notes: as for B1
B5: GST-MTDH (364-582) E400A (other)
chain: B1 chain with E37A
notes: as for B1
B6: GST-MTDH (364-582) D389R (other)
chain: B1 chain with D26R
notes: as for B1
B7: GST-MTDH (364-582) E400R (other)
chain: B1 chain with E37R
notes: as for B1
B8: Myc-MTDH D393R, full-length human (other)
chain: MAARSWQDELAQQAEEGSARLREMLSVGLGFLRTELGLDLGLEPKRYPGWVILVGTGALGLLLLFLLGYGWAAACAGSRKKRRSPPRKREEAAAVPAAAPDDLALLKNLRSEEQKKKNRKKLSEKPKPNGRTVEVAEGEAVRTPQSVTAKQPPEIDKKNEKSKKNKKKSKSDAKAVQNSSRHDGKEVDEGAWETKISHREKRQQRKRDKVLTDSGSLDSTIPGIENTITVTTEQLTTASFPVGSKKNKGDSHLNVQVSNFKSGKGDSTLQVSSGLNENLTVNGGGWNEKSVKLSSQISAGEEKWNSVSPASAGKRKAEPSAWSQDTGDANTNGKDWGRSWSDRSIFSGIGSTAEPVSQSTTSDYQWDVSRNQPYIDDEWSGLNGLSSADPNSRWNAPAEEWGNWVDEERASLLKSQEPIPDDQKVSDDDKEKGEGALPTGKSKKKKKKKKKQGEDNSTAQDTEELEKEIREDLPVNTSKTRPKQEKAFSLKTISTSDPAEVLVKNSQPIKTLPPATSTEPSVILSKSDSDKSSSQVPPILQETDKSKSNTKQNSVPPSQTKSETSWESPKQIKKKKKARRET
notes: Full-length, Myc-tagged; also called SPM12
B9: Myc-MTDH D406R, full-length human (other)
chain: B8 chain with R393D, D406R
notes: Full-length, Myc-tagged; also called SPM32
B10: Myc-MTDH E407R, full-length human (other)
chain: B8 chain with R393D, E407R
notes: Full-length, Myc-tagged; also called SPM33
B11: Myc-MTDH W404D, full-length human (other)
chain: B8 chain with R393D, W404D
notes: Full-length, Myc-tagged; also called SPM31
B12: GST-MTDH (386-407), wild type (other)
chain: SSADPNSDWNAPAEEWGNWVDE
modifications: not fully specified (N-terminus)
notes: as for B1
B13: SND1 (16-339) Δ39-43 (deletion in the SN1 Lβ2-β3 loop) (other)
chain: VPTVQRGIIKMVLSGCAIIVRGQPPERQINLSNIRAGNLARRAAATQPDAKDTPDEPWAFPAREFLRKKLIGKEVCFTIENKTPQGREYGMIYLGKDTNGENIAESLVAEGLATRREGMRANNPEQNRLSECEEQAKAAKKGMWSEGNGSHTIRDLKYTIENPRHFVDSHHQKPVNAIIEHVRDGSVVRALLLPDYYLVTVMLSGIKCPTFRREADGSETPEPFAAEAKFFTESRLLQRDVQIILESCHNQNILGTILHPNGNITELLLKEGFARCVDWSIAVYTRGAEKLRAAERFAKERRLRIWRDYVAPTANLDQK
notes: also called 439-43; not shown: N-terminal His tag (His6, His8 or His) with TEV site, pQlink vector
B14: His-SND1(16-339) P43G/R324E (protein)
single chain: VPTVQRGIIKMVLSGCAIIVRGQPRGGGPPERQINLSNIRAGNLARRAAATQPDAKDTPDEPWAFPAREFLRKKLIGKEVCFTIENKTPQGREYGMIYLGKDTNGENIAESLVAEGLATRREGMRANNPEQNRLSECEEQAKAAKKGMWSEGNGSHTIRDLKYTIENPRHFVDSHHQKPVNAIIEHVRDGSVVRALLLPDYYLVTVMLSGIKCPTFRREADGSETPEPFAAEAKFFTESRLLQRDVQIILESCHNQNILGTILHPNGNITELLLKEGFARCVDWSIAVYTRGAEKLRAAERFAKERRLEIWRDYVAPTANLDQK
B15: His-SND1 (16-339), SN1/2 domains, wild type (other)
chain: B14 single chain with G28P, E309R
notes: also called His6-SND1 harboring the SN1/2 domains; not shown: N-terminal His tag (His6, His8 or His) with TEV site, pQlink vector
B16: His-SND1(16-339) P43G (other)
single chain: B14 single chain with E309R
notes: mutant named only on the sheet
B17: SND1 (16-339) R324E (other)
chain: B14 single chain with G28P
notes: not shown: N-terminal His tag (His6, His8 or His) with TEV site, pQlink vector
B18: SND1 (16-339) F250A (other)
chain: B14 single chain with G28P, F235A, E309R
notes: as for B17
B19: SND1 (16-339) R324A (other)
chain: B14 single chain with G28P, E309A
notes: as for B17
B20: SND1 (16-339) R316E (negative control mutation outside the interface) (other)
chain: B14 single chain with G28P, R301E, E309R
notes: as for B17
B21: SND1 (16-339) R255E (other)
chain: B14 single chain with G28P, R240E, E309R
notes: as for B17

Target: B15
Experiment: GST pull-down on glutathione resin, SDS-PAGE, Coomassie blue; normalised percentage of binding, mean±SEM of three experiments
From the text: (§1) The proteins bound to GS4B were examined on SDS-PAGE and visualized by Coomassie blue staining. […] The bound proteins were examined as in (FIG. 22A). For both (FIG. 22A) and (FIG. 22B), experiments were repeated three times; representative results are shown. The normalized percentage of binding was averaged from three experiments; mean±SEM was shown below the data. (FIG. 22C) HEK293T cells were transfected with human HA-SND1, WT Myc-MTDH or Myc-MTDH with indicated single point mutation. Lysates were immunoprecipitated with anti-Myc antibody and immunoblotted with the indicated antibodies. (FIG. 22D) HEK293T cells were transfected with human Myc-MTDH, WT HA-SND1 or mutant HA-SND1 with indicated single point mutations or deletions. Lysates were immunoprecipitated with anti-Myc and immunoblotted with the indicated antibodies.
(§2) GST-Mediated Pull-Down Assay: ˜20 μg of GST-MTDH (different truncation forms and site mutants) was bound to 10 μl of glutathione resin via GST tag. The resin was washed with 200 μl assay buffer (25 mM Tris, PH8.0, 150 mM NaCl, 3 mM DTT) three times to remove the excess unbound protein. […] The mixture was washed with 200 μl assay buffer twice before examined by SDS-PAGE, and visualized by Coomassie blue staining. The experiments were repeated 3 times and the ratio of SND1 associated with GST-MTDH was analyzed by ImageJ.
Identification of MTDH and SND1 mutants deficient in binding: To gain insight into how the interface characterized above contributes to MTDH-SND1 interaction, structure-guided mutagenesis studies were performed.

| Binder | % Maximum binding [%] |
| --- | --- |
| B1 | 100 |
| B2 | 46 |
| B3 | 84 |
| B4 | 68 |
| B5 | 80 |
| B6 | 60 |
| B7 | 70 |

Target: T1, HA-SND1, full-length human, wild type
Experiment: co-IP (anti-Myc) from HEK293T lysates, western blot

| Binder | binding result |
| --- | --- |
| B8 | binds |
| B9 | binds |
| B10 | binds |
| B11 | binds |

Target: B15
Experiment: GST titration pull-down: GST-MTDH (386-407) on glutathione resin, SND1 (SN1/2) at 10, 3, 1, 0.5, 0.25, 0.12 (the sheet prints mM, paragraph 254 says µM), SDS-PAGE, Coomassie blue

| Binder | Estimated Binding Affinity [µM] |
| --- | --- |
| B12 | ~1.2 |
| SSADPNSDWNDPAEEWGNWVDE (other, member of the group m64) [A396D] | ~1.5 |
| SSADPNSDWKAPAEEWGNWVDE (other, member of the group m64) [N395K] | ~0.8 |
| SSADPNSDWNAPAEDWGLWVDE (other, member of the group m64) [E400D/N403L] | ~0.9 |

Target: B1
Experiment: pull-down by GST-MTDH (364-582) on glutathione resin, SDS-PAGE, Coomassie blue; normalised percentage of binding, mean±SEM of three experiments
From the text: as §1, §2

| Binder | % Maximum binding [%] |
| --- | --- |
| B13 | 2 |
| B14 | 9 |
| B15 | 100 |
| B16 | 67 |
| B17 | 26 |
| B18 | 9 |
| B19 | 70 |
| B20 | 88 |
| B21 | 2 |
